EC50 data for 1 molecule are collected here from US20110020361A1 (GOVERNMENT OF THE UNITED STATES OF AMERICA AS REPRESENTED …, published 2011).

For this experiment, the target named is T1, recombinant human mesothelin (amino acids 296-600 of SEQ ID NO: 4) (human, UniProt Q13421 296-600).
T1 construct: Secreted from SF9 insect cells (baculovirus vector pAcGP67) and purified by nickel column and gel filtration; It was coated on ELISA plates and, biotin-labelled, used for panning; also called recombinant mesothelin; purified mesothelin
Description: ELISA, recombinant mesothelin coated on plate, anti-FLAG-HRP detection. In general terms: An ELISA detects its analyte on a solid surface through an enzyme-linked reagent.
Description: Antigen (mesothelin) diluted in PBS was coated on narrow-well 96-well plates at 50 ng/well overnight at 4° C. Wells were blocked with 100 μl of 4% milk/PBS (MPBS) for 1 hour at 37° C. […] Fifty μl of diluted Fab was added to duplicate wells. For competition ELISA, designated concentrations of competing IgG were included in all Fab solutions. After 2 hours of incubation at 37° C., the wells were washed with PBST (PBS+0.05% Tween 20) 4 times. […] Wells were washed again with PBST. Substrate ABTS was added (50 μl/well), and the reaction was read at A405 nm. For ELISA with IgG, a goat anti-human Fc IgG conjugated with HRP was used at 1:1000.

B1: Fab m912 (Fab, V domains shown)
VH: QVQLQESGPGLVKPSETLSLTCTVSGGSVSSGSYYWSWIRQPPGKGLEWIGYIYYSGSTNYNPSLKSRVTISVDTSKNQFSLKLSSVTAADTAVYYCAREGKNGAFDIWGQGTMVTVSS
VL: not shown
notes: Human Fab from a naive Fab phage library, expressed in E. coli HB2151; also called clone m912; mesothelin-specific antibody m912
Consider B1, for which the 50% effective concentration (EC50) (as a rule, the midpoint of the concentration-response curve) stood at 20 nM.
